The results in this text go back to the supplement of paper PMC9732359.

± gives the uncertainty stated by the source.

This data set in a line: protein stability index of a GFP-peptide fusion (yeast GPS) (PSI 1-4); higher = more stable; sorted into four equal gates, so the index is relative within each strain. Summed up: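 Tiled 17-residue peptides from yeast proteins were fused downstream of GFP on a plasmid that also expresses Cherry, and the pooled library was carried in yeast. Mid-log cultures grown in leucine-free medium were sorted into four equal gates by GFP/Cherry fluorescence ratio. Plasmids from each gate were PCR-amplified and Illumina-sequenced, and reads were assigned to strains by barcodes. Each peptide's protein stability index is the sum, over gates, of the gate's read frequency multiplied by its gate number.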

As to NVTFGSKKDPRILKNVS [YMR153W/NUP53], the protein stability index (doa10∆) stood at 2.81 ± 0.053, the protein stability index (pdr5∆) stood at 2.69 ± 0.056, the protein stability index (san1∆) is 2.81 ± 0.045 and the protein stability index (ubr1∆) stood at 2.67 ± 0.035.
With KRSTVPLNDGFVDLVEH [YML103C/NUP188], the protein stability index is, setting by setting: (doa10∆) 3.06 ± 0.09; (pdr5∆) 2.97 ± 0.093; (san1∆) 3.37 ± 0.12; (ubr1∆) 2.69 ± 0.053.
For AFLSKVPEFFQTANEKH [SRP14], the protein stability index worked out at 3.21 ± 0.12 (doa10∆), 3.21 ± 0.17 (pdr5∆), 3.37 ± 0.11 (san1∆) and 3.09 ± 0.26 (ubr1∆).
As for AVPRDELGRSNYGMIAI [FAS1], the protein stability index (doa10∆) was determined as 2.97 ± 0.17, the protein stability index (pdr5∆) was 3.16 ± 0.15, the protein stability index (san1∆) came to 3.28 ± 0.071 and the protein stability index (ubr1∆) stood at 3.33 ± 0.22.
With QFYVKRWKRFTIGAIFL [CDC53], the protein stability index by setting is: (doa10∆) 2.81 ± 0.076; (pdr5∆) 2.94 ± 0.093; (san1∆) 3.08 ± 0.099; (ubr1∆) 2.04 ± 0.055.
As for GQLLSVKFLVYQGVYSM [YML031W/NDC1], the protein stability index runs as follows: (doa10∆) 1.61 ± 0.084; (pdr5∆) 1.75 ± 0.14; (san1∆) 1.48 ± 0.11; (ubr1∆) 1.98 ± 0.11.
With FYVQDVYKDNLSFIQVR [RPO31], the protein stability index (doa10∆) came to 1.98 ± 0.049, the protein stability index (pdr5∆) worked out at 1.69 ± 0.05, the protein stability index (san1∆) amounted to 1.92 ± 0.068 and the protein stability index (ubr1∆) is 1.88 ± 0.041.
As for PRPSYSSRPNVNTTRRF [YMR129W/POM152], the protein stability index by setting is: (doa10∆) 2.89 ± 0.099; (pdr5∆) 2.97 ± 0.096; (san1∆) 2.92 ± 0.074; (ubr1∆) 2.82 ± 0.067.
For the sequence ETISAIEHPMTSAIEVL [RPN1], the protein stability index reads like this: (doa10∆) 1.49 ± 0.048; (pdr5∆) 1.72 ± 0.042; (san1∆) 1.76 ± 0.071; (ubr1∆) 1.8 ± 0.044.
The corresponding values for GNKKYRALRIETGNFSW [RPS8A] are 2.87 ± 0.038, 3.15 ± 0.044, 3.14 ± 0.036 and 2.85 ± 0.03.
The corresponding values for LNICRQCFREKANDIGF [RPS29A] are 2.8 ± 0.094, 2.97 ± 0.12, 3.07 ± 0.1 and 2.86 ± 0.11.
On the same counts, the results for QNNLPPNFFLTLISENW [BRR2] are 2.94 ± 0.073, 3.13 ± 0.069, 2.91 ± 0.071 and 2.94 ± 0.072.
For the sequence FELVSDLSYIEFLFESL [ECM29], the protein stability index worked out at 2.88 ± 0.067 (doa10∆), 2.74 ± 0.077 (pdr5∆), 2.97 ± 0.062 (san1∆) and 2.87 ± 0.049 (ubr1∆).
The corresponding values for ESKMRQQEAKYRNNEPA [YDL088C/ASM4] are 3.13 ± 0.074, 3.12 ± 0.063, 2.84 ± 0.075 and 2.88 ± 0.059.
On to VRMRLAQLTHSLRRIRD [MED8], for which the protein stability index was 1.45 ± 0.041 (doa10∆), 2.04 ± 0.063 (pdr5∆), 1.49 ± 0.087 (san1∆) and 1.91 ± 0.049 (ubr1∆).
The corresponding values for RVRNKDIRKFLDGIYVS [RPL9A] are 1.91 ± 0.081, 2.07 ± 0.087, 2.05 ± 0.11 and 2.23 ± 0.062.
On the same counts, the results for KDDGAFVKFLSKKGSLE [RPL10] are 3.51 ± 0.18, 3.32 ± 0.14, 3.06 ± 0.068 and 3.25 ± 0.064.
On the same counts, the results for KSSILTVLQKNSLLLDS [YML103C/NUP188] are 1.84 ± 0.056, 1.71 ± 0.08, 1.56 ± 0.075 and 2.36 ± 0.085.
For the sequence PAIPPVIDLEKIKFDES [BRR2], the protein stability index by setting is: (doa10∆) 2.85 ± 0.093; (pdr5∆) 2.84 ± 0.093; (san1∆) 2.67 ± 0.086; (ubr1∆) 2.77 ± 0.082.
On the same counts, the results for TAVVNNAAPANVTGGKA [SWI1] are 2.64 ± 0.038, 1.98 ± 0.04, 2.37 ± 0.093 and 2.66 ± 0.037.
Sequence VKSLRQGKSKLIIIAAN [RPL30] registered a protein stability index (doa10∆) of 2.03 ± 0.11, a protein stability index (pdr5∆) of 1.4 ± 0.11, a protein stability index (san1∆) of 1.62 ± 0.22 and a protein stability index (ubr1∆) of 1.96 ± 0.084.
With YLHDNASKVLLKIFLYL [IRR1], the protein stability index (doa10∆) is 1.92 ± 0.099, the protein stability index (pdr5∆) amounted to 1.64 ± 0.075, the protein stability index (san1∆) was found to be 1.42 ± 0.093 and the protein stability index (ubr1∆) came out at 1.77 ± 0.053.
The corresponding values for TASDQLFGMCESLYEPN [PUP3] are 2.06 ± 0.059, 2.12 ± 0.058, 2.71 ± 0.084 and 1.83 ± 0.039.
Turning to GINSKSGKPFIAGFDLI [PUP3], the protein stability index by setting is: (doa10∆) 3.11 ± 0.089; (pdr5∆) 3.29 ± 0.094; (san1∆) 3.3 ± 0.13; (ubr1∆) 3.06 ± 0.081.
On the same counts, the results for APIQLKIDLLSGQFYFR [RGR1] are 2.63 ± 0.14, 2.86 ± 0.16, 2.15 ± 0.23 and 3.02 ± 0.082.
